Results reported in article PMC8946217, “Selective Targeting of Protein Kinase C (PKC)-θ Nuclear Translocation Reduces Mesenchymal Gene Signatures and Reinvigorates Dysfunctional CD8^+ T Cells in Immunotherapy-Resistant and Metastatic Cancers” (Cancers, 2022).

Target: biotinylated GST-importin α2 (UniProt P52293 1-529, biotinylated)
Assay: AlphaScreen or HTRF; about 30 nM His6-PKC-θ and increasing concentrations of biotinylated GST-importins; in triplicate; three parameter sigmoidal curves fitted; quenched values in the hooking zone excluded
Details: both partners purified

B1: His6-PKC-θ (protein kinase C theta) (enzyme)
chain: MSPFLRIGLSNFDCGSCQSCQGEAVNPYCAVLVKEYVESENGQMYIQKKPTMYPPWDSTFDAHINKGRVMQIIVKGKNVDLISETTVELYSLAERCRKNNGKTEIWLELKPQGRMLMNARYFLEMSDTKDMNEFETEGFFALHQRRGAIKQAKVHHVKCHEFTATFFPQPTFCSVCHEFVWGLNKQGYQCRQCNAAIHKKCIDKVIAKCTGSAINSRETMFHKERFKIDMPHRFKVYNYKSPTFCEHCGTLLWGLARQGLKCDACGMNVHHRCQTKVANLCGINQKLMAEALAMIESTQQARCLRDTEQIFREGPVEIGLPCSIKNEARPPCLPTPGKREPQGISWESPLDEVDKMCHLPEPELNKERPSLQIKLKIEDFILHKMLGKGSFGKVFLAEFKKTNQFFAIKALKKDVVLMDDDVECTMVEKRVLSLAWEHPFLTHMFCTFQTKENLFFVMEYLNGGDLMYHIQSCHKFDLSRATFYAAEIILGLQFLHSKGIVYRDLKLDNILLDKDGHIKIADFGMCKENMLGDAKTNTFCGTPDYIAPEILLGQKYNHSVDWWSFGVLLYEMLIGQSPFHGQDEEELFHSIRMDNPFYPRWLEKEAKDLLVKLFVREPEKRLGVRGDIRQHPLFREINWEELERKEIDPPFRPKVKSPFDCSNFDKEFLNEKPRLSFADRALINSMDQNMFRNFSFMNPGMERLIS
notes: protein kinase C theta (PKC-θ); also called recombinant purified His6-PKC-θ; source: recombinant, purified
B1 was tested. Which Kd did it give?
The Kd was 2.75 nM.
